Reference: PMC6389284, “Heterodimerization of UNC-13/RIM regulates synaptic vesicle release probability but not priming in C. elegans” (eLife, 2019)

Experiments:
[1] = target: T1, C. elegans UNC-13 long isoform residues 1-258 bearing the K49E mutation (C. elegans, UniProt P27715 1-258, K49E); test: ITC
T1 sequence: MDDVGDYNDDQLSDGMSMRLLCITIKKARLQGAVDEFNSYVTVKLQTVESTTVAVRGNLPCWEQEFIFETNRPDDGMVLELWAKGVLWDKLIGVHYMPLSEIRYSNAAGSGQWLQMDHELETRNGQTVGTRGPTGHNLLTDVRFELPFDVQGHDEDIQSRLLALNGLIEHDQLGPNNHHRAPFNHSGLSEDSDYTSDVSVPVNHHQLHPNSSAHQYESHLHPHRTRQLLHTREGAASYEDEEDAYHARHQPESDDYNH

[2] = target: T2, C. elegans UNC-13 long isoform residues 1-258 bearing the K49E mutation (C. elegans, UniProt P27715 1-258, K49E); test: ITC; Nano ITC (TA Instruments), 20 mM HEPES pH 7.5, 150 mM NaCl, 25°C; one site independent binding model; UNC-13L 1-258 K49E at 21 µM, UNC-10 62-121 WT at 140 µM or K77/79E at 116 µM; conditions: both partners purified
T2 construct: UNC-13 long isoform, C. elegans, residues 1-258 with K49E; expressed from pGEX6p1; Residues left by HRV3C cleavage of the pGEX6p1 fusion are not described; also called UNC-13L residues 1-258; UNC-13L C2A domain; source: E. coli Rosetta2 (DE3), purified (glutathione sepharose, HRV3C cleavage on beads, Superdex 75)
T2 sequence (looked up): T1 sequence

B1: C. elegans UNC-10 residues 62-121 WT (domain or fragment, UniProt Q22366 62-121, looked up)
chain: KLVGTQDDAICQICQKTKFADGIGHKCFYCQLRSCARCGGRAQSKNKAIWACSLCQKRQQ
notes: expressed from pGEX6p1; also called UNC-10/RIM ZF domain; source: E. coli Rosetta2 (DE3), grown with ZnSO4, purified (glutathione sepharose, HRV3C cleavage on beads, Superdex 75)
B1 showed a Ka [1] of 789000 M⁻¹ and a Kd [2] of 1290 nM.
